Molecular target: the molecule itself
Experiment: negative stain EM

B1: RPS2^ΔN26 (domain or fragment, Arabidopsis thaliana, UniProt Q42484 27-909, looked up)
chain: HKTDLRQAITDLETAIGDLKAIRDDLTLRIQQDGLEGRSCSNRAREWLSAVQVTETKTALLLVRFRRREQRTRMRRRYLSCFGCADYKLCKKVSAILKSIGELRERSEAIKTDGGSIQVTCREIPIKSVVGNTTMMEQVLEFLSEEEERGIIGVYGPGGVGKTTLMQSINNELITKGHQYDVLIWVQMSREFGECTIQQAVGARLGLSWDEKETGENRALKIYRALRQKRFLLLLDDVWEEIDLEKTGVPRPDRENKCKVMFTTRSIALCNNMGAEYKLRVEFLEKKHAWELFCSKVWRKDLLESSSIRRLAEIIVSKCGGLPLALITLGGAMAHRETEEEWIHASEVLTRFPAEMKGMNYVFALLKFSYDNLESDLLRSCFLYCALFPEEHSIEIEQLVEYWVGEGFLTSSHGVNTIYKGYFLIGDLKAACLLETGDEKTQVKMHNVVRSFALWMASEQGTYKELILVEPSMGHTEAPKAENWRQALVISLLDNRIQTLPEKLICPKLTTLMLQQNSSLKKIPTGFFMHMPVLRVLDLSFTSITEIPLSIKYLVELYHLSMSGTKISVLPQELGNLRKLKHLDLQRTQFLQTIPRDAICWLSKLEVLNLYYSYAGWELQSFGEDEAEELGFADLEYLENLTTLGITVLSLETLKTLFEFGALHKHIQHLHVEECNELLYFNLPSLTNHGRNLRRLSIKSCHDLEYLVTPADFENDWLPSLEVLTLHSLHNLTRVWGNSVSQDCLRNIRCINISHCNKLKNVSWVQKLPKLEVIELFDCREIEELISEHESPSVEDPTLFPSLKTLRTRDLPELNSILPSRFSFQKVETLVITNCPRVKKLPFQERRTQMNLPTVYCEEKWWKALEKDQPNEELCYLPRFVPN
For B1, the “stoichiometry N” value was 8.

From paper doi:10.1101/2025.08.26.672026 (bioRxiv, 2025)
